{
  "source": "patent US20030220482A1",
  "about": "(published 2003)",
  "binders": {"B1": {"name": "viral Macrophage Inflammatory Protein-II (vMIP-II) (ligand)", "chain": "LGASWHRPDKCCLGYQKRPLPQVLLSSWYPTSQLCSKPGVIFLTKRGRQVCADKSKDWVKKLMQQLPVTAR", "notes": "also called native vMIP-II"}},
  "key": {"CXCR4 chemokine receptor [1]": {"molecular_target": "T1, CXCR4 chemokine receptor (human, UniProt P61073 1-352)", "T1 construct": "whole, on cells", "T1 sequence (P61073 whole entry)": "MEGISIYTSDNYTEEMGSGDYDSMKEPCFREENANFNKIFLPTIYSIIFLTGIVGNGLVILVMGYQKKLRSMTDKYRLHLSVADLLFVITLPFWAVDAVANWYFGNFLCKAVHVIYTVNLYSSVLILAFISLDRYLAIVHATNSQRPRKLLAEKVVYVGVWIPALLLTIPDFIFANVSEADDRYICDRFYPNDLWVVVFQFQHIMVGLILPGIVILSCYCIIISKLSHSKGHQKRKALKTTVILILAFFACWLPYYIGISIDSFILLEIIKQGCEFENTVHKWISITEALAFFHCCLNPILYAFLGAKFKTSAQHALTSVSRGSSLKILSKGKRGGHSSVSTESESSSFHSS", "test": "control in ^125I-SDF-1α competitive binding on CEM-T4 cells (FIG. 1)"}, "CCR5 chemokine receptor": {"molecular_target": "T2, CCR5 chemokine receptor (UniProt P51681 1-352, limits assumed)", "T2 construct": "whole, on cells", "T2 sequence (P51681 whole entry)": "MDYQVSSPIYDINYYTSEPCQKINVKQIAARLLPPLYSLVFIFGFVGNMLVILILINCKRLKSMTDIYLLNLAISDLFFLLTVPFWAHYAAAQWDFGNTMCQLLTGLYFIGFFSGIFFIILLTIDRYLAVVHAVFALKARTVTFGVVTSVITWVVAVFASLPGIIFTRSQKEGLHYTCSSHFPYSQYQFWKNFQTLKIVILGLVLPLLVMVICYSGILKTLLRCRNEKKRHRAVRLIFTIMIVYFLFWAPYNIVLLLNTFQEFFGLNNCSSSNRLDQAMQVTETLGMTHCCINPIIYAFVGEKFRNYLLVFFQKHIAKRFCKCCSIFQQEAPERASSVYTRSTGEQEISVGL", "test": "competitive binding with radiolabeled MIP-1β on CCR5-transfected 293 cells"}, "CXCR4 chemokine receptor [2]": {"molecular_target": "T1, CXCR4 chemokine receptor", "test": "^125I-SDF-1α competitive binding on CEM-T4 cells", "experimental": "CEM-T4 cells were harvested and washed twice with PBS. […] The incubation was terminated by separating the cells from the binding buffer by centrifugation and washing once with 500 μl of cold binding buffer. Bound ligands were quantitated by counting γ emissions."}},
  "data": [
    {"binder": "B1", "values": [
      {"measurement": "binding result", "setting": "CXCR4 chemokine receptor [1]", "result": "binds"}
    ]},
    {"binder": "LGASWHRPDK", "note": "[V3 peptide (vMIP-II, 1-10)]", "values": [
      {"measurement": "binding result", "setting": "CCR5 chemokine receptor", "result": "no binding"},
      {"measurement": "binding result", "setting": "CXCR4 chemokine receptor [2]", "result": "binds"}
    ]}
  ]
}
